Patent US20030224487A1

Tests used:
[1] = target: human zcytor17 and OSMRbeta co-expressed on transfected cells (human); test: flow cytometry (SA-PE), BAF3-C17 + OSMRbeta cells, ligand 10.0 µg/mL
[2] = target: human zcytor17 receptor, full length, on transfected cells (human); test: flow cytometry (SA-PE), BHK-C17 cells, ligand 0.000001 µg/mL
[3] = target: human zcytor17 and OSMRbeta co-expressed on transfected cells (human); test: flow cytometry (SA-PE), BAF3-C17 + OSMRbeta cells, ligand 0.00 µg/mL (no ligand, background)
[4] = target: human zcytor17 receptor, full length, on transfected cells (human); test: flow cytometry (SA-PE), BHK-C17 cells, ligand 0.00001 µg/mL
[5] = target: human zcytor17 and OSMRbeta co-expressed on transfected cells (human); test: flow cytometry (SA-PE), BHK C17 + OSMRbeta cells, ligand 0.0 µg/mL (no ligand, background)
[6] = target: human OncostatinM receptor beta (OSMRbeta), full length, on transfected cells (human); test: flow cytometry (SA-PE), BAF3-OSMRbeta cells, ligand 3.33 µg/mL (background level; no binding)
[7] = target: human zcytor17 and OSMRbeta co-expressed on transfected cells (human); test: flow cytometry (SA-PE), BAF3-C17 + OSMRbeta cells, ligand 1.11 µg/mL
[8] = target: human zcytor17 receptor, full length, on transfected cells (human); test: flow cytometry (SA-PE), BHK-C17 cells, ligand 0.100 µg/mL
[9] = target: human zcytor17 and OSMRbeta co-expressed on transfected cells (human); test: flow cytometry (SA-PE), BAF3-C17 + OSMRbeta cells, ligand 0.04 µg/mL
[10] = target: human zcytor17 receptor, full length, on transfected cells (human); test: flow cytometry (SA-PE), BHK-C17 cells, ligand 0.0 µg/mL (no ligand, background)
[11] = target: human OncostatinM receptor beta (OSMRbeta), full length, on transfected cells (human); test: flow cytometry (SA-PE), BAF3-OSMRbeta cells, ligand 0.37 µg/mL (background level; no binding)
[12] = target: human zcytor17 receptor, full length, on transfected cells (human); test: flow cytometry (SA-PE), BAF3-C17 cells, ligand 0.0 ng/mL (no ligand, background)
[13] = target: human zcytor17 and OSMRbeta co-expressed on transfected cells (human); test: flow cytometry (SA-PE), BHK C17 + OSMRbeta cells, ligand 0.010 µg/mL
[14] = target: human zcytor17 receptor, full length, on transfected cells (human); test: flow cytometry (SA-PE), BHK-C17 cells, ligand 0.010 µg/mL
[15] = target: human zcytor17 receptor, full length, on transfected cells (human); test: flow cytometry (SA-PE), BAF3-C17 cells, ligand 100.0 ng/mL
[16] = target: human zcytor17 and OSMRbeta co-expressed on transfected cells (human); test: flow cytometry (SA-PE), BHK C17 + OSMRbeta cells, ligand 2.0 µg/mL
[17] = target: human zcytor17 and OSMRbeta co-expressed on transfected cells (human); test: flow cytometry (SA-PE), BHK C17 + OSMRbeta cells, ligand 0.100 µg/mL
[18] = target: human OncostatinM receptor beta (OSMRbeta), full length, on transfected cells (human); test: flow cytometry (SA-PE), BAF3-OSMRbeta cells, ligand 0.04 µg/mL (background level; no binding)
[19] = target: human OncostatinM receptor beta (OSMRbeta), full length, on transfected cells (human); test: flow cytometry (SA-PE), BHK-OSMRbeta cells, ligand 2.0 µg/mL (background level; no binding)
[20] = target: human OncostatinM receptor beta (OSMRbeta), full length, on transfected cells (human); test: flow cytometry (SA-PE), BAF3-OSMRbeta cells, ligand 1.11 µg/mL (background level; no binding)
[21] = target: human zcytor17 receptor, full length, on transfected cells (human); test: flow cytometry (SA-PE), BHK-C17 cells, ligand 2.0 µg/mL
[22] = target: human zcytor17 and OSMRbeta co-expressed on transfected cells (human); test: flow cytometry (SA-PE), BHK C17 + OSMRbeta cells, ligand 0.000001 µg/mL
[23] = target: human zcytor17 and OSMRbeta co-expressed on transfected cells (human); test: flow cytometry (SA-PE), BHK C17 + OSMRbeta cells, ligand 0.0001 µg/mL
[24] = target: human zcytor17 and OSMRbeta co-expressed on transfected cells (human); test: flow cytometry (SA-PE), BAF3-C17 + OSMRbeta cells, ligand 0.12 µg/mL
[25] = target: human zcytor17 and OSMRbeta co-expressed on transfected cells (human); test: flow cytometry (SA-PE), BHK C17 + OSMRbeta cells, ligand 0.00001 µg/mL
[26] = target: human OncostatinM receptor beta (OSMRbeta), full length, on transfected cells (human); test: flow cytometry (SA-PE), BHK-OSMRbeta cells, ligand 0.0 µg/mL (no ligand, background)
[27] = target: human OncostatinM receptor beta (OSMRbeta), full length, on transfected cells (human); test: flow cytometry (SA-PE), BAF3-OSMRbeta cells, ligand 10.0 µg/mL (background level; no binding)
[28] = target: human zcytor17 receptor, full length, on transfected cells (human); test: flow cytometry (SA-PE), BAF3-C17 cells, ligand 1.0 ng/mL
[29] = target: human zcytor17 receptor, full length, on transfected cells (human); test: flow cytometry (SA-PE), BAF3-C17 cells, ligand 10.0 ng/mL
[30] = target: human zcytor17 and OSMRbeta co-expressed on transfected cells (human); test: flow cytometry (SA-PE), BAF3-C17 + OSMRbeta cells, ligand 3.33 µg/mL
[31] = target: human zcytor17 and OSMRbeta co-expressed on transfected cells (human); test: flow cytometry (SA-PE), BHK C17 + OSMRbeta cells, ligand 0.001 µg/mL
[32] = target: human OncostatinM receptor beta (OSMRbeta), full length, on transfected cells (human); test: flow cytometry (SA-PE), BAF3-OSMRbeta cells, ligand 0.00 µg/mL (no ligand, background)
[33] = target: human zcytor17 and OSMRbeta co-expressed on transfected cells (human); test: flow cytometry (SA-PE), BAF3-C17 + OSMRbeta cells, ligand 0.37 µg/mL
[34] = target: human zcytor17 receptor, full length, on transfected cells (human); test: flow cytometry (SA-PE), BHK-C17 cells, ligand 0.0001 µg/mL
[35] = target: human OncostatinM receptor beta (OSMRbeta), full length, on transfected cells (human); test: flow cytometry (SA-PE), BAF3-OSMRbeta cells, ligand 0.12 µg/mL (background level; no binding)
[36] = target: human zcytor17 receptor, full length, on transfected cells (human); test: flow cytometry (SA-PE), BHK-C17 cells, ligand 0.001 µg/mL
[37] = target: human zcytor17 and OSMRbeta co-expressed on transfected cells (human); test: cell-based or functional assay
[38] = target: human zcytor17, OSMRbeta and WSX-1 co-expressed on transfected cells (human); test: cell-based or functional assay

## biotinylated human zcytor17L (ligand)
[1]
  mean fluorescent intensity (MFI): 531
[2]
  mean fluorescent intensity (MFI): 14
[3]
  mean fluorescent intensity (MFI): 7
[4]
  mean fluorescent intensity (MFI): 15
[5]
  mean fluorescent intensity (MFI): 13
[6]
  mean fluorescent intensity (MFI): 5
[7]
  mean fluorescent intensity (MFI): 489
[8]
  mean fluorescent intensity (MFI): 1600
[9]
  mean fluorescent intensity (MFI): 247
[10]
  mean fluorescent intensity (MFI): 15
[11]
  mean fluorescent intensity (MFI): 5
[12]
  mean fluorescent intensity (MFI): 7
[13]
  mean fluorescent intensity (MFI): 328
[14]
  mean fluorescent intensity (MFI): 244
[15]
  mean fluorescent intensity (MFI): 347
[16]
  mean fluorescent intensity (MFI): 3780
[17]
  mean fluorescent intensity (MFI): 2130
[18]
  mean fluorescent intensity (MFI): 5
[19]
  mean fluorescent intensity (MFI): 13
[20]
  mean fluorescent intensity (MFI): 5
[21]
  mean fluorescent intensity (MFI): 3030
[22]
  mean fluorescent intensity (MFI): 14
[23]
  mean fluorescent intensity (MFI): 17
[24]
  mean fluorescent intensity (MFI): 364
[25]
  mean fluorescent intensity (MFI): 15
[26]
  mean fluorescent intensity (MFI): 0
[27]
  mean fluorescent intensity (MFI): 6
[28]
  mean fluorescent intensity (MFI): 17
[29]
  mean fluorescent intensity (MFI): 72
[30]
  mean fluorescent intensity (MFI): 508
[31]
  mean fluorescent intensity (MFI): 53
[32]
  mean fluorescent intensity (MFI): 11
[33]
  mean fluorescent intensity (MFI): 441
[34]
  mean fluorescent intensity (MFI): 16
[35]
  mean fluorescent intensity (MFI): 5
[36]
  mean fluorescent intensity (MFI): 39

B1: human zcytor17lig (untagged, expressed from cDNA or native in conditioned media) (ligand)
chain: MASHSGPSTSVLFLFCCLGGWLASHTLPVRLLRPSDDVQKIVEELQSLSKMLLKDVEEEKGVLVSQNYTLPCLSPDAQPPNNIHSPAIRAYLKTIRQLDNKSVIDEIIEHLDKLIFQDAPETNISVPTDTHECKRFILTISQQFSECMDLALKSLTSGAQQATT
[37]
  proliferation of BaF3/zcytor17/OSMRbeta cells (Alamar Blue) with conditioned media from activated CCRF-CEM and CCRF-HSB2 cells (fold over background): 10
  proliferation of BaF3/zcytor17/OSMRbeta cells (Alamar Blue) with conditioned media from activated CD3+ selected human cells: 15 fold
[38]
  proliferation of BaF3/zcytor17/WSX-1/OSMRbeta cells (Alamar Blue) with conditioned media from activated CCRF-CEM and CCRF-HSB2 cells (fold over background): 10
  proliferation of BaF3/zcytor17/WSX-1/OSMRbeta cells (Alamar Blue) with conditioned media from activated CD3+ selected human cells (fold over background): 15
